# Measurements reported in paper PMC5048593.
# What was measured:
# Test in all cases: ITC
# [1] = molecular target: p107^ΔPL containing six mutations to the Rb sequence (p107^6x) (human) (UniProt P28749)
# [2] = molecular target: p107^ΔPL E560H (human) (UniProt P28749)
# [3] = molecular target: p107^ΔPL H797R (human) (UniProt P28749)
# [4] = molecular target: p107^ΔPL V490K (human) (UniProt P28749)
# [5] = molecular target: phosphorylated p107^ΔPL982 (human) (UniProt P28749)
# [6] = molecular target: Rb pocket domain lacking its large internal loop (Rb^ΔPL: residues 380–787 with 581–642 deleted) (human) (UniProt P06400)
substance,measurement,setting,value
E2F1 transactivation domain (E2F1^TD) (domain or fragment),fold higher affinity than p107^ΔPL,[1],3 fold
E2F2 transactivation domain (E2F2^TD) (domain or fragment),fold increase in affinity over p107^ΔPL,[2],3 fold
same,fold increase in affinity over p107^ΔPL,[3],3 fold
same,fold increase in affinity over p107^ΔPL,[4],3 fold
same,fold higher affinity than p107^ΔPL,[1],24 fold
E2F4 transactivation domain (E2F4^TD) (domain or fragment),fold reduction in affinity against unphosphorylated p107^ΔPL982,[5],3 fold
E2F4^TD N395G (domain or fragment),fold increase in affinity over wild-type E2F4^TD,[6],5 fold
